Where two headings read alike, the source gives them in different places. Where a SMILES comes first, the peptide text is derived from it. Bridges are numbered along the chain shown (N, C = ends). Primed or numbered codes have the meaning given here. Where no end group is shown, it is not given here. [ ]: non-standard residue; d: D form. Phg′ = phenylglycine, D or L; Mpa = O=C(O)CCS
Legend:
[1] = molecular target: human neutral endopeptidase 24.11 (human) (UniProt P08473); experiment: cell-based or functional assay
hNPR-C = molecular target: T1, hNPR-C (Homo sapiens, UniProt P17342); experiment: Competition binding to hNPR-C (Table I, FIG. 5)
T1 sequence (P17342 27-541): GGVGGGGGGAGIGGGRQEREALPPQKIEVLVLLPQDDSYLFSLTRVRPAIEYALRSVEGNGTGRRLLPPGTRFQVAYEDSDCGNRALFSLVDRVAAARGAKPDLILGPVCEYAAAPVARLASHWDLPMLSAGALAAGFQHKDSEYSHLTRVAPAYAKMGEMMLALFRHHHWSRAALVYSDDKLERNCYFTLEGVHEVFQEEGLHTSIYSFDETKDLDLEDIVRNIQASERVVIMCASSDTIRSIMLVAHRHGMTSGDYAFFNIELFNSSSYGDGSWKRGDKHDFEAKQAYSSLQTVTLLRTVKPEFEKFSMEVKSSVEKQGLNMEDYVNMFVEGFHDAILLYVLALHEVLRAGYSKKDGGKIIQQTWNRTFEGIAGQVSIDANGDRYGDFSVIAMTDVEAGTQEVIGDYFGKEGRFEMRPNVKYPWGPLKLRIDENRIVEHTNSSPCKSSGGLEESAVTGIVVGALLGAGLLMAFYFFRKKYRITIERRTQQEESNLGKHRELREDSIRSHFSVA

[2] = molecular target: human NEP (hNEP), endopeptidase 24.11 (Homo sapiens, UniProt P08473); experiment: Degradation of ANF variants by human NEP, half-life by HPLC; details: isolated human NEP (endopeptidase 24.11) in HEPES buffer, Half-Life (min.), FIG. 7: ANF variants 32 nM/ml, NEP 0.45 μg/ml
Method: The half-life of various ANF variants was measured according to the following procedure.
ANF Solution: An accurately weighed amount of ANF or variant thereof was diluted with HEPES buffer (5 ml of 1 M HEPES Buffer and 0.1 ml of Tween 20 diluted to a 100 ml volume with DI water) to make a 0.5 mg/ml solution.
hNEP/HEPES Solution: 7.5 μl of a 1 mg/ml solution of hNEP (see U.S. Pat. No. 4,960,700) is dissolved in 992.5 μl of HEPES buffer (as described above) and vortex mixed. The resulting mixture is stored in a silylated Eppendorf tube and periodically checked for activity against an ANF peptide standard.
Assay conditions: 150 μl of an ANF solution in the HEPES buffer is diluted with 820 μl HEPES buffer and vortex mixed (1 sec). Careful note of the time is taken as 30 μl of the hNEP/HEPES solution is added and the solution is vortex mixed for 1 sec. and analyzed by periodic removal of constant volume aliquots by the HPLC autosampler. A 2.5 cm×50 cm, C-18 reversed-phase column (15 micron, 300 Å]) was used and elution was achieved by using a shallow gradient of increasing acetonitrile. The elution conditions consisted of a 10% to 50% acetonitrile (containing 0.1% TFA) gradient at 0.5% min.^−1. The aqueous phase was 0.1% TFA in water. The peak area of the ANP peptide is recorded at these periodic intervals and a half-life is determined from these values.

hNPR-A = molecular target: T2, hNPR-A (Homo sapiens, UniProt P16066); experiment: Competition binding to hNPR-A (Table I, FIG. 5)
T2 sequence (P16066 33-1061): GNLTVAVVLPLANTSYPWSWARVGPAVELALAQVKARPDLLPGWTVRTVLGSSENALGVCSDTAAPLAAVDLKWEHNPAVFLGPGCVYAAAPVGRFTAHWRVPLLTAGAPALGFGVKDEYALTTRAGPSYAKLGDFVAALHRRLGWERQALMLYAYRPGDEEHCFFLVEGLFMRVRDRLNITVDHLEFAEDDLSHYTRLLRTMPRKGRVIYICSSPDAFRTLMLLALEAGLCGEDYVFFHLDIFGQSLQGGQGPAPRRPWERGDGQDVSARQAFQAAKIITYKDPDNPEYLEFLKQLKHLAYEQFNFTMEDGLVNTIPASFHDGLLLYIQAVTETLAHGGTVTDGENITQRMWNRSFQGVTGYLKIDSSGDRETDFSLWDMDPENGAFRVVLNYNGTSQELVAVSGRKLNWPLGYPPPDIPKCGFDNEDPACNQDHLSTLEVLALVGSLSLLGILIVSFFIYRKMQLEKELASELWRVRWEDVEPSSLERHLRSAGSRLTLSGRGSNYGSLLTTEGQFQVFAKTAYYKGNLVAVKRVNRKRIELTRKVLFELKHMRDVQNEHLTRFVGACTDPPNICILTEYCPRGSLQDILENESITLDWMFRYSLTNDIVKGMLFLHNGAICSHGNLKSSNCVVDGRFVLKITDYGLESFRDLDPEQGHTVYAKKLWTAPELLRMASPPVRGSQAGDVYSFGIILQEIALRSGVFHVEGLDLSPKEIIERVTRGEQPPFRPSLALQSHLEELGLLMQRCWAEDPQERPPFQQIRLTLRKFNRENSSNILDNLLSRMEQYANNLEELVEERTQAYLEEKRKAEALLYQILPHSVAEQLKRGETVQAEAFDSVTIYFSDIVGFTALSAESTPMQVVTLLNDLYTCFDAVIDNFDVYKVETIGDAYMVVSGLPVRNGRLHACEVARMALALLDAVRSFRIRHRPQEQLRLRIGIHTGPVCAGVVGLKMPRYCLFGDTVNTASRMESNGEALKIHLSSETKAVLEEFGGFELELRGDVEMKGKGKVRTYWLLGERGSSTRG

[3] = molecular target: T3, human neutral endopeptidase 24.11 (human), P08473; experiment: cell-based or functional assay
T3 chain: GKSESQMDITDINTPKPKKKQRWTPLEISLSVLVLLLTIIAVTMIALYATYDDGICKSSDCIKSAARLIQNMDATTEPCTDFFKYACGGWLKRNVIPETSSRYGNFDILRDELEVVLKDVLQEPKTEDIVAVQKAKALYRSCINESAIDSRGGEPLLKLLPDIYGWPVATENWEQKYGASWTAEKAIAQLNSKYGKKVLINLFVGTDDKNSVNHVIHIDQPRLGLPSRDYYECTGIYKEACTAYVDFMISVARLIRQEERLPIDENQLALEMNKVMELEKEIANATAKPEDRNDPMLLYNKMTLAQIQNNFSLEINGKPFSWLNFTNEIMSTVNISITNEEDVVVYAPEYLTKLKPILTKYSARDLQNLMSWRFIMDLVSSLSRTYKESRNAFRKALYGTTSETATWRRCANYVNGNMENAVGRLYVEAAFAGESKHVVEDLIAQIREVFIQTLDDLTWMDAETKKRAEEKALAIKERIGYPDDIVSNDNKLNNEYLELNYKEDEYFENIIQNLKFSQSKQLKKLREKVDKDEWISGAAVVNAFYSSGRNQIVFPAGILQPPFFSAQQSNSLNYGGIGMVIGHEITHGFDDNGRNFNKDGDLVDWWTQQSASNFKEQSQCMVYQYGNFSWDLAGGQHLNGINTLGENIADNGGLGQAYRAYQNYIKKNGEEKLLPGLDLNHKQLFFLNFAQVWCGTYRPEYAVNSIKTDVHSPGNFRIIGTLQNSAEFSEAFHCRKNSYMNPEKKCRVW

[4] = molecular target: T4, human natriuretic peptide clearance receptor-C (human, UniProt P17342 27-541); experiment: competition binding, Table I; tracer and receptor format not given
T4 construct: whole, on cells; also called hNPR-C; human NPR-C
T4 sequence (looked up): T1 sequence (P17342 27-541)

[5] = molecular target: T5, human natriuretic peptide receptor-A (human, UniProt P16066 33-1061); experiment: as above
T5 construct: whole, on cells; also called hNPR-A; human NPR-A
T5 sequence (looked up): T2 sequence (P16066 33-1061)

[6] = molecular target: T6, human natriuretic peptide receptor-A (human), P16066; experiment: competition binding vs 125I-rat ANP, membranes; details: chains peptide; modification not given
T6 chain: T2 sequence (P16066 33-1061)

[7] = molecular target: T7, human natriuretic peptide clearance receptor-C (human), P17342; experiment: competition binding, membranes; details: chains peptide; modification not given
T7 chain: T1 sequence (P17342 27-541)

[8] = molecular target: T6, human natriuretic peptide receptor-A …; experiment: competition binding, Table I; tracer and receptor format not given
[9] = molecular target: T8, human neutral endopeptidase 24.11 (human, UniProt P08473 2-750, limits assumed); experiment: cell-based or functional assay
[10] = molecular target: T8, human neutral endopeptidase 24.11; experiment: cell-based or functional assay; remark: listed apart in the source
[11] = molecular target: T7, human natriuretic peptide clearance …; experiment: competition binding, Table I; tracer and receptor format not given

Chain of human NEP (hNEP), endopeptidase 24.11 (P08473 whole entry): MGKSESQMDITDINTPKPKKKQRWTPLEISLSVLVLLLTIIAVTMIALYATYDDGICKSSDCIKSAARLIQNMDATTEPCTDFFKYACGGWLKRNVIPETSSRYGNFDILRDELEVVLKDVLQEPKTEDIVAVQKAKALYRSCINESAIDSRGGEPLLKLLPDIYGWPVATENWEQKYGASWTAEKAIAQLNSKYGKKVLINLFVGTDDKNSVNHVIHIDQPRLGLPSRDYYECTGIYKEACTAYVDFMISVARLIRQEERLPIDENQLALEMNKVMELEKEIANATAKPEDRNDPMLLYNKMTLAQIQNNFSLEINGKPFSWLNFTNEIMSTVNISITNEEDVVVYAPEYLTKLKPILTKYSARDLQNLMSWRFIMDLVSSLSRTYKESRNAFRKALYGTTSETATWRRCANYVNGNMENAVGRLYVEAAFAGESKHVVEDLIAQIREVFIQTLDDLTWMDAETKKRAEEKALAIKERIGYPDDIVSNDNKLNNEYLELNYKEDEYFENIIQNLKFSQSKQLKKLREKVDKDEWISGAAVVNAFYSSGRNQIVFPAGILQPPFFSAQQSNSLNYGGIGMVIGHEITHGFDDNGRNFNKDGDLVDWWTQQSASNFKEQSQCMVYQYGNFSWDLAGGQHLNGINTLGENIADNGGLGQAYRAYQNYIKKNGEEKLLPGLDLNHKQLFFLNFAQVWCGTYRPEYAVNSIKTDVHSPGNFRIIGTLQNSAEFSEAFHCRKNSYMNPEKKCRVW

ANF 40 (peptide)
Half-Life [1]: 9.95 h

CC[C@H](C)[C@@H]1NC(=O)[C@H](CCCNC(=N)N)NC(=O)[C@H](CC(=O)O)NC(=O)[C@H](CCSC)NC(=O)[C@H](CO)NC(=O)[C@H](CCCCN)NC(=O)CNC(=O)[C@H](Cc2ccccc2)NC(=O)[C@@H](NC(=O)[C@H](CO)NC(=O)[C@H](CO)NC(=O)[C@H](CCCNC(=N)N)NC(=O)[C@H](CCCNC(=N)N)NC(=O)[C@H](CC(C)C)NC(=O)[C@@H](N)CO)CSSC[C@@H](C(=O)N[C@@H](CC(N)=O)C(=O)N[C@@H](CO)C(=O)N[C@@H](Cc2ccccc2)C(=O)N[C@@H](CCCNC(=N)N)C(=O)N[C@@H](Cc2ccc(O)cc2)C(=O)O)NC(=O)CNC(=O)[C@H](CC(C)C)NC(=O)CNC(=O)[C@H](CO)NC(=O)[C@H](CCC(N)=O)NC(=O)[C@H](C)NC(=O)CNC1=O [ANF 60] (H-SLRRSSCFGKSMDRIGAQSGLGCNSFRY-OH; disulfide 7-23; C-terminus assumed)
IC50 (hNPR-C; read-out: Binding Affinity IC50(pM) hNPR-C): 5980 pM
half-life at 32 nM/ml [2]: 5.07 h
IC50 (hNPR-A; read-out: Binding Affinity IC50(pM) hNPR-A): 112 pM

ANF 28 (peptide)
Half-Life [1]: 9.52 h

hANF(1-28) G16R (SLRRSSCFGGRMDRIRAQSGLGCNSFRY) [hANF with the single substitution of arginine for glycine at position 16]
Reduction of NPR-C affinity (hNPR-C; relative to wild type): about 150 fold
Effect of substitution on NPR-A binding (hNPR-A; relative to wild type): negligible effect

SLRRSSCFGGRMDRIGAQSGLGCNSFRY (modifications not checked) [hANF(1-28), wild-type human atrial natriuretic factor]
Half-Life [3]: 2.27 h

B1: ANF 81 (peptide)
peptide: [Mpa]F[dA]GSIDRIRAQSGLGCNSFRY
modifications: disulfide 1-17; not fully specified; printed as Mpa-Phe-(D-Ala)-Gly-Ser-Ile-Asp-Arg-Ile-Arg-Ala-Gln-Ser-Gly-Leu-Gly-Cys-Asn-Ser-Phe-Arg-Tyr
IC50 [4]: 3860 nM
IC50 [5]: 1.4 nM

B2: ANF 90 (peptide)
peptide: SLRRSSCF[dA]GDIDRIRAQSGLGCNSFRY
modifications: disulfide 7-23
notes: Cys7-Cys23 disulfide; also called hANF(1-28) G9(d-Ala), R11D, M12I, G16R
IC50 [4]: 6140 nM
IC50 [5]: 1.2 nM

SLRRSSCFGGRIDRIGAQSGLGCNSFRY [rat ANP]
Half-Life [3]: 2.75 h
IC50 [6]: 0.181 nM
IC50 [7]: 0.145 nM

[Mpa]F[dT]GSIDRIRAQSGLGCNSFRY (disulfide 1-17) [ANF 80]
IC50 [4]: 739 nM
IC50 [5]: 0.423 nM

SLRRSSC[Phg′]TGSIDRIRAQSGLGCNSFRY (disulfide 7-23; also: Phg configuration D or L not given here) [ANF 100-1]
IC50 [4]: 3230 nM
IC50 [5]: 0.187 nM

TAPRSLRRSSCFTGSIDRIRAQSGLGCNSFRY (modifications not checked) [ANF 76]
Half-Life [3]: 23.5 h
IC50 [8]: 0.0089 nM

TAPRSLRRSSCFGGRIDRIRAQSGLGCNSFRY (disulfide 11-27) [ANF 23]
Half-Life [9]: 12.3 h

TAPRSLRRSSCFGGRMDRIGAQSGLGCNSFRY [urodilatin]
Half-Life [9]: 31 h
Half-Life [10]: 27.1 h

SLRRSSCFGKSMDRIGAQSGLGCNSFRY (modifications not checked) [ANF 60]
Half-Life [3]: 5.07 h
IC50 [8]: 0.112 nM
IC50 [11]: 5.98 nM

B3: ANF 24 (peptide)
peptide: SLRRSSCFGGRIDRIRAQSGLGCNSFRY
modifications: disulfide 7-23
notes: Synthetic; Cys7-Cys23 disulfide; also called hANF(1-28) M12I, G16R
Half-Life [9]: 10 h
IC50 [4]: 5.64 nM

SLRRSSCFGGRIDSIRAQSGLGCNSFRY (disulfide 7-23, also called hANF(1-28) M12I, R14S, G16R) [ANF 25]
IC50 [4]: 3.31 nM
IC50 [5]: 0.056 nM
Half-Life [10]: 3.32 h

B4: ANF 50 (peptide)
peptide: SLRRSSCFTGSMDRIGAQSGLGCNSFRY
modifications: disulfide 7-23
notes: Cys7-Cys23 disulfide; also called hANF(1-28) G9T, R11S
Half-Life [9]: 1.55 h
IC50 [4]: 251 nM
IC50 [5]: 0.57 nM

SLRRSSCFAGSIDRIRAQSGLGCNSFRY (modifications not checked) [ANF 78]
IC50 [11]: 8.64 nM

[Mpa]F[dA]GDIDRIRAQSGLGCNSFRY (ends and bridges not checked) [ANF 92]
Half-Life [10]: 1.77 h

SLRRSSCFTGSIDRIRAQSGLGCNSFRY (modifications not checked) [ANF 27]
Half-Life [3]: 5.57 h
IC50 [11]: 1000 nM

SLRRSSCFGGRIDRIREASGLGCNSFRY [ANF 99]
IC50 [6]: 0.145 nM
IC50 [7]: 121 nM

From patent US6525022B1, “Receptor specific atrial natriuretic peptides” (Genentech, Inc., priority 1993, dated 2003)
